{"source": "patent US20260317426", "about": "(published 2026)", "binders": {"B1": {"name": "CLN-619 (3F9H1L3L) (antibody, V domains shown)", "VH": "QVQLVESGGGLVKPGGSLRLSCAASGFTFSNYAMSWIRQAPGKGLEWVSYISPGGDYIYYADSVKGRFTISRDNAKNSLYLQMNSLRAEDTAVYYCTTDRRHYGSYAMDYWGQGTLVTVSS", "VL": "DIVMTQSPLSLPVTPGEPASISCRSSKSLLHSNLNTYLYWFLQKPGQSPQILIYRMSNLASGVPDRFSGSGSGTAFTLKISRVEAEDVGVYYCMQHLEYPFTFGPGTKLEIKR"}}, "key": {"MICB*004 ECD": {"target": "T1, MICB*004 ECD (human, UniProt Q29980)", "T1 chain": "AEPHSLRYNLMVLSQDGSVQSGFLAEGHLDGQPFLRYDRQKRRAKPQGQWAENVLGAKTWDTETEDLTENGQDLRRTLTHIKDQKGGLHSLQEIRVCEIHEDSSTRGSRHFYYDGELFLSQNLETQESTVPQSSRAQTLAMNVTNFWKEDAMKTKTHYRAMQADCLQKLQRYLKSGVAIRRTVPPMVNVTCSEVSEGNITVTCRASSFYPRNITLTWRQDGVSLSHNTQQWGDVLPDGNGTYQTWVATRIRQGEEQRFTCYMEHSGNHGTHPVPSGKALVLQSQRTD", "assay": "BLI, monovalent"}, "[1]": {"target": "T2, MICA ECD (alleles *001, *002, *004, *008) (human, UniProt Q29983)", "T2 chain": "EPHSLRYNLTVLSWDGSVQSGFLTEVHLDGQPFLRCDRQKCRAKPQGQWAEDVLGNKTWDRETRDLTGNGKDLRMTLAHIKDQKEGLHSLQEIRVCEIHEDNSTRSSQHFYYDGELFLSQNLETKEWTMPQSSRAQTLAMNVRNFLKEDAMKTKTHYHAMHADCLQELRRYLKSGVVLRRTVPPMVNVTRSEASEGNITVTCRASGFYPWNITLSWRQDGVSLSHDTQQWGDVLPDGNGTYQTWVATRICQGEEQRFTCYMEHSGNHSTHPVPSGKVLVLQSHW", "assay": "BLI, monovalent, lowest of MICA alleles"}}}
{"binder": "B1", "values": [{"measurement": "Kd", "setting": "MICB*004 ECD", "result": 11.4, "unit": "nM"}, {"measurement": "Kd", "setting": "[1]", "result": 0.77, "unit": "nM"}]}
